# The supplement of paper PMC9112550, “Optimization of the antimicrobial peptide Bac7 by deep mutational scanning” (BMC Biology, 2022)
# System: Escherichia coli TOP10
# Assay: shrunken log2 fold change of peptide-encoding DNA abundance (4.5 h post-induction vs induction); higher = less antimicrobial activity (less host growth inhibition)
# Conditions: time post-induction: 4.5 h; library: site-saturation at positions 5, 18, 19, 20
# 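Note: peptides expressed intracellularly from a pBAD plasmid library in pooled LB shake-flask culture, induced with 0.3% L-arabinose, DNA abundance read by NGS, three biological replicates, DESeq2 with apeglm shrinkage.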
row,Sequence,shrunken log2 fold change
1,RRIRLRPPRLPRPRPRPASEPRP,0.159
2,RRIRSRPPRLPRPRPRPINVPRP,-0.418
3,RRIRARPPRLPRPRPRPCSKPRP,0.0365
4,RRIRARPPRLPRPRPRPMGDPRP,-0.0121
5,RRIRTRPPRLPRPRPRPSITPRP,-0.484
6,RRIRWRPPRLPRPRPRPVWIPRP,0.142
7,RRIRHRPPRLPRPRPRPCPAPRP,-0.231
8,RRIRERPPRLPRPRPRPRIQPRP,-0.362
9,RRIRQRPPRLPRPRPRPVLEPRP,0.198
10,RRIRLRPPRLPRPRPRPSSGPRP,0.131
11,RRIRIRPPRLPRPRPRPDEGPRP,-0.22
12,RRIRGRPPRLPRPRPRPLHQPRP,0.665
13,RRIRCRPPRLPRPRPRPRVTPRP,0.23
14,RRIRMRPPRLPRPRPRPWKGPRP,-0.00192
15,RRIRIRPPRLPRPRPRPLAFPRP,-0.302
16,RRIRTRPPRLPRPRPRPECGPRP,0.51
17,RRIRVRPPRLPRPRPRPQWEPRP,0.0101
18,RRIRERPPRLPRPRPRPSWRPRP,-0.0751
19,RRIRTRPPRLPRPRPRPPVKPRP,0.385
20,RRIRYRPPRLPRPRPRPNSEPRP,-0.589
21,RRIRDRPPRLPRPRPRPVEPPRP,0.0157
22,RRIRHRPPRLPRPRPRPIKDPRP,-0.299
23,RRIRDRPPRLPRPRPRPPRVPRP,0.727
24,RRIRMRPPRLPRPRPRPQCQPRP,-0.0148
25,RRIRDRPPRLPRPRPRPANHPRP,-0.438

row,Sequence,shrunken log2 fold change
1,RRIRRRPPRLPRPRPRPYKIPRP,-0.158
2,RRIRKRPPRLPRPRPRPYASPRP,0.0496
3,RRIRTRPPRLPRPRPRPLHVPRP,-0.175
4,RRIRQRPPRLPRPRPRPMESPRP,-0.0548
5,RRIRFRPPRLPRPRPRPMRQPRP,0.0953
6,RRIRLRPPRLPRPRPRPTASPRP,0.0857
7,RRIRSRPPRLPRPRPRPPIWPRP,0.0326
8,RRIRRRPPRLPRPRPRPRPCPRP,0.384
9,RRIRLRPPRLPRPRPRPDQMPRP,-0.0132
10,RRIRIRPPRLPRPRPRPGQSPRP,0.0669
11,RRIRYRPPRLPRPRPRPCLGPRP,-0.231
12,RRIRRRPPRLPRPRPRPAYGPRP,0.286
13,RRIRMRPPRLPRPRPRPFLRPRP,-0.22
14,RRIRMRPPRLPRPRPRPWDNPRP,0.013
15,RRIRTRPPRLPRPRPRPLKWPRP,-0.205
16,RRIRKRPPRLPRPRPRPICVPRP,0.0188
17,RRIRYRPPRLPRPRPRPEPWPRP,0.00405
18,RRIRNRPPRLPRPRPRPPIMPRP,-0.549
19,RRIRIRPPRLPRPRPRPTSNPRP,-0.807
20,RRIRIRPPRLPRPRPRPPMWPRP,0.00227
21,RRIRERPPRLPRPRPRPIGKPRP,0.133
22,RRIRCRPPRLPRPRPRPPYFPRP,-0.07
23,RRIRCRPPRLPRPRPRPFWNPRP,-0.278
24,RRIRKRPPRLPRPRPRPMMPPRP,0.234
25,RRIRRRPPRLPRPRPRPVALPRP,0.225

row,Sequence,shrunken log2 fold change
1,RRIRVRPPRLPRPRPRPYGCPRP,-0.00989
2,RRIRCRPPRLPRPRPRPMPQPRP,0.202
3,RRIRARPPRLPRPRPRPNVIPRP,-0.433
4,RRIRARPPRLPRPRPRPTVLPRP,0.106
5,RRIRDRPPRLPRPRPRPCVFPRP,0.37
6,RRIRARPPRLPRPRPRPDHKPRP,-0.312
7,RRIRSRPPRLPRPRPRPQYDPRP,-0.352
8,RRIRFRPPRLPRPRPRPPFCPRP,0.0782
9,RRIRQRPPRLPRPRPRPRPWPRP,0.858
10,RRIRDRPPRLPRPRPRPFSIPRP,0.0044
11,RRIRHRPPRLPRPRPRPTNSPRP,-0.258
12,RRIRLRPPRLPRPRPRPIKPPRP,0.0261
13,RRIRTRPPRLPRPRPRPGLAPRP,0.308
14,RRIRSRPPRLPRPRPRPMDAPRP,-0.0809
15,RRIRDRPPRLPRPRPRPVNHPRP,-0.514
16,RRIRCRPPRLPRPRPRPRNSPRP,-0.113
17,RRIRNRPPRLPRPRPRPNEHPRP,-0.071
18,RRIRPRPPRLPRPRPRPQAWPRP,0.179
19,RRIRERPPRLPRPRPRPSEWPRP,-0.0737
20,RRIRFRPPRLPRPRPRPHPLPRP,-0.16
21,RRIRERPPRLPRPRPRPGKAPRP,-0.0498
22,RRIRMRPPRLPRPRPRPYNHPRP,-0.491
23,RRIRCRPPRLPRPRPRPYMQPRP,-0.918
24,RRIRPRPPRLPRPRPRPGVAPRP,0.27
25,RRIRYRPPRLPRPRPRPKFPPRP,-1.01

row,Sequence,shrunken log2 fold change
1,RRIRMRPPRLPRPRPRPRRNPRP,0.807
2,RRIRWRPPRLPRPRPRPQIAPRP,0.141
3,RRIRGRPPRLPRPRPRPLDGPRP,0.342
4,RRIRDRPPRLPRPRPRPGDWPRP,0.92
5,RRIRMRPPRLPRPRPRPQVLPRP,0.25
6,RRIRCRPPRLPRPRPRPHCHPRP,-0.475
7,RRIRYRPPRLPRPRPRPHTHPRP,-1.17
8,RRIRLRPPRLPRPRPRPIMFPRP,-0.488
9,RRIRDRPPRLPRPRPRPHEFPRP,0.00812
10,RRIRWRPPRLPRPRPRPWITPRP,-0.0174
11,RRIRSRPPRLPRPRPRPCCFPRP,-0.0695
12,RRIRPRPPRLPRPRPRPAMLPRP,0.233
13,RRIRCRPPRLPRPRPRPPDVPRP,0.156
14,RRIRCRPPRLPRPRPRPALNPRP,0.179
15,RRIRPRPPRLPRPRPRPPTYPRP,-0.204
16,RRIRNRPPRLPRPRPRPNALPRP,-0.134
17,RRIRQRPPRLPRPRPRPPEWPRP,-0.0462
18,RRIRWRPPRLPRPRPRPQPYPRP,-0.166
19,RRIRSRPPRLPRPRPRPNRTPRP,-0.0602
20,RRIRKRPPRLPRPRPRPRIDPRP,-0.154
21,RRIRDRPPRLPRPRPRPYTEPRP,-0.0346
22,RRIRFRPPRLPRPRPRPSFKPRP,-0.683
23,RRIRLRPPRLPRPRPRPWIYPRP,-0.385
24,RRIRMRPPRLPRPRPRPQTAPRP,0.524
25,RRIRNRPPRLPRPRPRPIRTPRP,-0.176

row,Sequence,shrunken log2 fold change
1,RRIRTRPPRLPRPRPRPCYEPRP,-0.549
2,RRIRQRPPRLPRPRPRPMHTPRP,-0.026
3,RRIRQRPPRLPRPRPRPQWNPRP,-0.206
4,RRIRYRPPRLPRPRPRPSWAPRP,-0.21
5,RRIRARPPRLPRPRPRPWFYPRP,0.0676
6,RRIRERPPRLPRPRPRPRYNPRP,-0.672
7,RRIRVRPPRLPRPRPRPWPDPRP,0.033
8,RRIRHRPPRLPRPRPRPGKAPRP,-0.0115
9,RRIRWRPPRLPRPRPRPCEWPRP,0.0102
10,RRIRGRPPRLPRPRPRPCCLPRP,0.429
11,RRIRLRPPRLPRPRPRPYEIPRP,-0.012
12,RRIRYRPPRLPRPRPRPCGGPRP,0.00427
13,RRIRDRPPRLPRPRPRPMLCPRP,-0.00642
14,RRIRHRPPRLPRPRPRPCKIPRP,-0.036
15,RRIRDRPPRLPRPRPRPTGSPRP,0.0325
16,RRIRPRPPRLPRPRPRPSGTPRP,0.669
17,RRIRPRPPRLPRPRPRPDSCPRP,0.0412
18,RRIRLRPPRLPRPRPRPCTKPRP,-0.22
19,RRIRKRPPRLPRPRPRPPCSPRP,0.202
20,RRIRPRPPRLPRPRPRPWPQPRP,0.0953
21,RRIRFRPPRLPRPRPRPQPEPRP,-0.119
22,RRIRQRPPRLPRPRPRPMMDPRP,-0.137
23,RRIRFRPPRLPRPRPRPDGFPRP,0.015
24,RRIRHRPPRLPRPRPRPFDHPRP,-0.0277
25,RRIRMRPPRLPRPRPRPYVDPRP,-0.249

row,Sequence,shrunken log2 fold change
1,RRIRIRPPRLPRPRPRPHPPPRP,-0.0108
2,RRIRQRPPRLPRPRPRPRRWPRP,0.326
3,RRIRRRPPRLPRPRPRPHTNPRP,-0.547
4,RRIRHRPPRLPRPRPRPRNLPRP,0.0727
5,RRIRARPPRLPRPRPRPYTCPRP,-0.0591
6,RRIRSRPPRLPRPRPRPALRPRP,0.169
7,RRIRDRPPRLPRPRPRPPAQPRP,0.296
8,RRIRRRPPRLPRPRPRPFDGPRP,0.079
9,RRIRSRPPRLPRPRPRPYEQPRP,-0.0601
10,RRIRMRPPRLPRPRPRPTAPPRP,0.905
11,RRIRPRPPRLPRPRPRPMRNPRP,0.905
12,RRIRYRPPRLPRPRPRPAQDPRP,0.188
13,RRIRRRPPRLPRPRPRPWMAPRP,0.0421
14,RRIRRRPPRLPRPRPRPQCNPRP,0.0615
15,RRIRFRPPRLPRPRPRPRRMPRP,0.397
16,RRIRLRPPRLPRPRPRPLTVPRP,0.127
17,RRIRHRPPRLPRPRPRPRKGPRP,0.236
18,RRIRTRPPRLPRPRPRPPFYPRP,-0.0308
19,RRIRRRPPRLPRPRPRPNTEPRP,0.119
20,RRIRCRPPRLPRPRPRPKLVPRP,-0.152
21,RRIRVRPPRLPRPRPRPKKQPRP,0.216
22,RRIRKRPPRLPRPRPRPLQNPRP,0.551
23,RRIRKRPPRLPRPRPRPAVGPRP,0.472
24,RRIRCRPPRLPRPRPRPLDQPRP,0.221
25,RRIRQRPPRLPRPRPRPKSGPRP,0.631
